Measurements: patent EP3433280B1 (F. Hoffmann-La Roche AG, dated 2023)

Target: T1, HER1 extracellular domain (human, UniProt P00533 25-645)
T1 construct: extracellular domain; also called HER1 coated chip surface
Assay: SPR (Biacore T100), HER1 extracellular domain amine-coupled to CM5, antibody injected at 3.125-50 nM, 1:1 Langmuir model

- Kd: 1 nM
B1: HER1-binding IgG1 antibody GA201 (antibody, V domains shown)
VH: QVQLVQSGAEVKKPGSSVKVSCKASGFTFTDYKIHWVRQAPGQGLEWMGYFNPNSGYSTYAQKFQGRVTITADKSTSTAYMELSSLRSEDTAVYYCARLSPGGYYVMDAWGQGTTVTVSS
VL: DIQMTQSPSSLSASVGDRVTITCRASQGINNYLNWYQQKPGKAPKRLIYNTNNLQTGVPSRFSGSGSGTEFTLTISSLQPEDFATYYCLQHNSFPTFGQGTKLEIKR
notes: IgG1, produced in 293-F cells; also called GA201 parental unmasked antibody; anti HER1 antibody GA201
